Patent US20250304690A1 (HANGZHOU VIROMAB BIOTECH, published 2025)
Substitutions are numbered along the chain they refer to.

B1: BK-D-08 (bispecific antibody, human IgG1, kappa)
heavy: QVQLVQSGAEVKKPGASVKVSCKASGYTFTNYYMKWVKQAPGQRLEWMGDLNPNNGDTFYNQKFKGRVTITVDKSASTAYMELSSLRSEDTAVYYCARTGRYEENAMDYWGQGTLVTVSSASTKGPSVFPLAPSSKSTSGGTAALGCLVKDYFPEPVTVSWNSGALTSGVHTFPAVLQSSGLYSLSSVVTVPSSSLGTQTYICNVNHKPSNTKVDKRVEPKSCDKTHTCPPCPAPEFEGGPSVFLFPPKPKDTLMISRTPEVTCVVVDVSHEDPEVKFNWYVDGVEVHNAKTKPREEQYNSTYRVVSVLTVLHQDWLNGKEYKCKVSNKALPASIEKTISKAKGQPREPQVYTLPPSREEMTKNQVSLTCLVKGFYPSDIAVEWESNGQPENNYKTTPPVLDSDGSFFLYSKLTVDKSRWQQGNVFSCSVMHEALHNHYTQKSLSLSPGKGGGGSGGGGSGGGGSQAVVTQEPSLTVSPGGTVTLTCRSSTGAVTTSNYANWVQQKPGQAPRGLIGGTNKRAPWTPARFSGSLLGGKAALTLSGAQPEDEAEYYCALWYSNLWVFGGGTKLTVLGGGGSGGGGSGGGGSEVQLVESGGGLVQPGGSLRLSCAASGFTFNTYAMNWVRQAPGKGLEWVARIRSKYNNYATYYADSVKDRFTISRDDSKNILYLQMNSLKTEDTAMYYCVRHGNFGNSYVSWFAYWGQGTLVTVSA
light: DIVLTQSPASLAVSPGQRATITCRASESVDSYGKSFMHWYQQKPGQPPKLLIYRASNLESGVPARFSGSGSRTDFTLTINPVEANDTANYYCQQNNEDPWTFGQGTKLEIKRTVAAPSVFIFPPSDEQLKSGTASVVCLLNNFYPREAKVQWKVDNALQSGNSQESVTEQDSKDSTYSLSSTLTLSKADYEKHKVYACEVTHQGLSSPVTKSFNRGEC
B2: BK-D-04 (bispecific antibody, human IgG1, kappa)
heavy: B1 heavy with T525V, G536D, P547T, I669S, M684V
light: B1 light
B3: BK-D-01 (bispecific antibody, human IgG1, kappa)
heavy: B1 heavy with R44S, M48I, R67K, V68A, I70L, S84N, I669S, M684V
light: B1 light
B4: BK-D-02 (bispecific antibody, human IgG1, kappa)
heavy: B1 heavy with R44S, M48I, R67K, V68A, I70L, S84N
light: B1 light with I2L, L4M, Q42L
B5: BK-D-03 (bispecific antibody, human IgG1, kappa)
heavy: B1 heavy with I669S, M684V
light: B1 light with I2L, L4M, Q42L
B6: BK-D-06 (bispecific antibody, human IgG1, kappa)
heavy: B1 heavy with Q505E, T525V, G536D, P547T, M684V
light: B1 light
B7: BK-D-05 (bispecific antibody, human IgG1, kappa)
heavy: B1 heavy with L542I, S543T, P547T, M684V
light: B1 light
B8: BK-A-101 (bispecific antibody, human IgG1, kappa)
heavy: not shown
light: QAVVTQESALTTSPGETVTLTCRSSTGAVTTSNYANWVQEKPDHLFTGLIGGTNKRAPGVPARFSGSLIGDKAALTITGAQTEDEAIYFCALWYSNLWVFGGGTKLTVLRTVAAPSVFIFPPSDEQLKSGTASVVCLLNNFYPREAKVQWKVDNALQSGNSQESVTEQDSKDSTYSLSSTLTLSKADYEKHKVYACEVTHQGLSSPVTKSFNRGEC
notes: also called bispecific antibody; the bispecific antibody
B9: CD3 Ab07 (antibody, human IgG1, kappa, V domains shown)
VH: EVQLVESGGGLVQPGGSLRLSCAASGFTFNTYAMNWVRQAPGKGLEWVARIRSKYNNYATYYADSVKDRFTISRDDSKNILYLQMNSLKTEDTAVYYCVRHGNFGNSYVSWFAYWGQGTLVTVSA
VL: QAVVTQEPSLTVSPGGTVTLTCRSSTGAVTTSNYANWVQQKPGQAPRGLIGGTNKRAPWTPARFSGSLLGGKAALTLSGAQTEDEAEYYCALWYSNLWVFGGGTKLTVLR
notes: also called humanized anti-CD3 monoclonal antibody
B10: CD3 Ab04 (antibody, human IgG1, kappa, V domains shown)
VH: B9 VH with I80S
VL: B9 VL with T60V, G71D
notes: as for B9
B11: CD3 Ab09 (antibody, human IgG1, kappa, V domains shown)
VH: B9 VH
VL: B9 VL with T60V, G71D
notes: as for B9
B12: CD3 Ab08 (antibody, human IgG1, kappa, V domains shown)
VH: B9 VH
VL: B9 VL with L77I, S78T
notes: as for B9
B13: CD3 Ab05 (antibody, human IgG1, kappa, V domains shown)
VH: B9 VH with I80S
VL: B9 VL with Q40E, T60V, G71D
notes: as for B9
B14: CD3 Ab12 (antibody, human IgG1, kappa, V domains shown)
VH: B9 VH with V95M
VL: B9 VL
notes: as for B9
B15: CD3 Ab02 (antibody, human IgG1, kappa, V domains shown)
VH: B9 VH with I80S
VL: B9 VL
notes: as for B9
B16: CD3 Ab10 (antibody, human IgG1, kappa, V domains shown)
VH: B9 VH
VL: B9 VL with Q40E, T60V, G71D
notes: as for B9
B17: CD3 Ab15 (antibody, human IgG1, kappa, V domains shown)
VH: B9 VH with V95M
VL: B9 VL with Q40E, T60V, G71D
notes: as for B9
B18: CD3 Ab11 (antibody, human IgG1, kappa, V domains shown)
VH: B9 VH with V95M
VL: B9 VL with T82P
notes: as for B9
B19: CD3 Ab03 (antibody, human IgG1, kappa, V domains shown)
VH: B9 VH with I80S
VL: B9 VL with L77I, S78T
notes: as for B9
B20: CD3 Ab13 (antibody, human IgG1, kappa, V domains shown)
VH: B9 VH with V95M
VL: B9 VL with L77I, S78T
notes: as for B9
B21: CD3 Ab14 (antibody, human IgG1, kappa, V domains shown)
VH: B9 VH with V95M
VL: B9 VL with T60V, G71D
notes: as for B9
B22: CD3 Ab06 (antibody, human IgG1, kappa, V domains shown)
VH: B9 VH
VL: B9 VL with T82P
notes: as for B9
B23: CD3 Ab01 (antibody, human IgG1, kappa, V domains shown)
VH: B9 VH with I80S
VL: B9 VL with T82P
notes: as for B9
B24: BK-D-09 (bispecific antibody, human IgG1, kappa)
heavy: B1 heavy with P547T, M684V
light: B1 light

The binders below were run against TT3 labeling polypeptide on cells (assay: flow cytometry on HCT116-TT3 cells).
Chain of TT3 labeling polypeptide on cells (P01732 other isoform, or with tags, fused parts or gaps limits assumed): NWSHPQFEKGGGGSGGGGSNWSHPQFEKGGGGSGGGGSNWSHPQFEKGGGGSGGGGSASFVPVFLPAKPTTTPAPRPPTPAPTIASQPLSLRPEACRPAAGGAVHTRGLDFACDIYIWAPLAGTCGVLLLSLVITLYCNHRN

Binder	EC50 [nM]
B1	0.368
B2	0.47
B3	0.07
B4	0.099
B5	0.464
B6	0.908
B7	1.04
B8	15.8

What follows are binders tested against CD3 on 293T-CD3 cells (assay: flow cytometry on 293T-CD3 cells).
Chain of CD3 on 293T-CD3 cells (chain, as listed by the source): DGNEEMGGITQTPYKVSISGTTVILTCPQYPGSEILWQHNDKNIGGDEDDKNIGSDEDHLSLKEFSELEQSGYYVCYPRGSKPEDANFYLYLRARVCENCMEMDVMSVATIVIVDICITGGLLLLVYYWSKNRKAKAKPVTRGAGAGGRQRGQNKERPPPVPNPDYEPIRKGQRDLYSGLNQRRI
Protocol: (§1) Then diluted antibodies with different concentrations were added. The cells were incubated at 4° C. for 0.5 h, centrifuged at 1200 rpm for 3-5 min, and washed with a FACS buffer. Then a goat anti-human IgG secondary antibody (manufacturer: Abcam, ab98596) was added at 100 L/well. The cells were incubated at 4° C. for 0.5 h, centrifuged at 1200 rpm for 3-5 min, washed with a FACs buffer, and resuspended in 50 μL of a FACs buffer, and assays were performed using a flow cytometer.

Binder	EC50 [nM]
B9	9.02
B10	5.23
B11	4.4
B12	4.24
B13	4.27
B14	15.8
B15	12.3
B16	2.44
B17	3.48
B18	21.6
B19	10.1
B20	12.4
B21	5.73
B22	13
B23	22.6

The binders below were run against T1, CD3 on Jurkat cells and on human T cells (human, UniProt P07766 23-207) (assay: flow cytometry on Jurkat cells).
T1 construct: whole, on cells; also called CD3 end; CD3 antigen
T1 sequence (P07766 23-207): as the sequence (chain, as listed by the source) above
Protocol: as §1

Binder	EC50 [nM]
B9	2.42
B10	1.18
B11	0.862
B12	1.82
B13	1.02
B14	3.52
B15	2.64
B16	0.784
B17	1.11
B18	4.45
B19	2.28
B20	3.19
B21	1.14
B22	3.31
B23	3.3

Target: T1, CD3 on Jurkat cells and on human T cells
Experiment: flow cytometry on Jurkat cells
Remark: another data set of the same source
Protocol: Jurkat cells were plated, washed with a FACS buffer, and centrifuged at 1200 rpm for 3-5 min. Then diluted antibodies with different concentrations were added at 100 L/well. The cells were incubated at 4° C. for 0.5 h, centrifuged at 1200 rpm for 3-5 min, and washed with a FACS buffer. Then a diluted goat anti-human IgG (FITC, Abcam/ab97224) antibody was added. The cells were incubated at 4° C. for 0.5 h, centrifuged at 1200 rpm for 3-5 min, washed with a FACS buffer, and resuspended in 50 μL of a FACs buffer, and assays were performed using a flow cytometer.

Binder	EC50 [nM]
B1	136
B2	18.2
B3	62.5
B24	97.8
B4	80.3
B5	111
B6	32.6
B7	71.4
B8	0.8

What follows are binders tested against hCD3 (human CD3 antigen) (human, UniProt P07766 23-126) (assay: ELISA, plate-coated hCD3).
Chain of hCD3 (human CD3 antigen) (P07766 23-126): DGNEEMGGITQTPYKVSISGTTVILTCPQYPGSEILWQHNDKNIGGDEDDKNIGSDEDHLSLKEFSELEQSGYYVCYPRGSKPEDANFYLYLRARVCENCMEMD
Protocol: The activity of the prepared humanized antibodies was assessed by ELISA as follows: hCD3 (human CD3 antigen) was diluted to 0.5 g/mL using a coating solution and then added to a 96-well plate at 100 μL/well, and the plate was incubated overnight at 4° C. The plate was washed with PBST. Then 200 µL of a blocking solution was added to each well, and blocking was performed at a temperature of 37° C. for 2 h. The plate was washed with PBST. Then diluted antibodies (the initial concentration was 40 nM, and serial dilution was performed in a 1:6 ratio) were added at 100 L/well, and the plate was incubated at a temperature of 37° C. for 2 h. The plate was washed with PBST. Then an HRP-labeled goat anti-human IgG was added at 100 L/well, and the plate was incubated at 37° C. for 1 h. The plate was washed with PBST, and TMB was added at 100 L/well. Color development was performed at 37° C. for 10-20 min, and 50 µL of 2 M H₂SO₄ was added to each well to stop the reaction. Readings were taken at 450 nm.

Binder	EC50 [nM]
B9	0.0129
B10	0.0068
B11	0.008
B12	0.0116
B13	0.0099
B14	0.0095
B15	0.0117
B16	0.002
B17	0.0099
B18	0.0118
B19	0.0042
B20	0.0099
B21	0.0087
B22	0.0126
B23	0.0096
